# Results as given in PMC3715468, “Structural and Functional Characterisation of TesA - A Novel Lysophospholipase A from Pseudomonas aeruginosa” (PLoS ONE, 2013).
# What was measured:
# Assay in all cases: purified protein
# Type in all cases: biochemical, Pseudomonas aeruginosa
# [1] = test system: CCCCCC(=O)OC[C@@H](O)COP(=O)([O-])OCC[N+](C)(C)C; conditions: pH 7.2; 37.0 °C
# [2] = test system: CCCCCCCCCCCCCCCC(=O)OC[C@@H](O)COP(=O)([O-])OCC[N+](C)(C)C; conditions: 20 mM Tris-HCl pH 7.2, 37 °C, 0.25% (v/v) Triton X-100, 1.5 mM NaN3, 30 min
# [3] = test system: CCCCCCCCCCCC(=O)OC[C@@H](O)COP(=O)([O-])OCC[N+](C)(C)C; conditions: pH 7.2; 37.0 °C
substance,measurement,setting,value
TesA (Pseudomonas aeruginosa PAO1),Km,[1],7.22 ± 0.92 mM
same,kcat/Km,[1],110000 M⁻¹ s⁻¹
same,Km,[2],2.04 ± 0.18 mM
same,kcat,[2],921 s⁻¹
same,kcat/Km,[2],450000 M⁻¹ s⁻¹
same,Km,[3],1.78 ± 0.17 mM
same,kcat/Km,[3],1.1e+06 M⁻¹ s⁻¹
